{
  "source": "patent US12366576B2",
  "about": "“Compositions, assays, and methods for direct modulation of fatty acid metabolism” (Dana-Farber Cancer Institute, Inc., priority 2016, dated 2025)",
  "key": {"[1]": {"target": "T1, MCL-1ΔNΔC (Homo sapiens, UniProt Q07820)", "T1 construct": "The MCL-1ΔNΔC construct was grown and expressed in E. coli as previously described; made in house; host or cells: E. coli BL21(DE3)", "T1 sequence (Q07820 172-320 limits assumed, stated change not applied)": "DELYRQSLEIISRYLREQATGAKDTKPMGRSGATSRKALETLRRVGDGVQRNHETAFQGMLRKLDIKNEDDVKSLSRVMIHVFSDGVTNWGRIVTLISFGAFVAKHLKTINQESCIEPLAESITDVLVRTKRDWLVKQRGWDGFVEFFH", "experiment": "Biolayer interferometry", "type": "binding", "conditions": "Biotin-PEG peptide immobilized on streptavidin sensors"}, "[2]": {"target": "T2, VLCAD (Homo sapiens, UniProt P49748)", "T2 construct": "10x His (N); made in house; host or cells: E. coli BL21(DE3), pET19b", "T2 sequence (P49748 40-655)": "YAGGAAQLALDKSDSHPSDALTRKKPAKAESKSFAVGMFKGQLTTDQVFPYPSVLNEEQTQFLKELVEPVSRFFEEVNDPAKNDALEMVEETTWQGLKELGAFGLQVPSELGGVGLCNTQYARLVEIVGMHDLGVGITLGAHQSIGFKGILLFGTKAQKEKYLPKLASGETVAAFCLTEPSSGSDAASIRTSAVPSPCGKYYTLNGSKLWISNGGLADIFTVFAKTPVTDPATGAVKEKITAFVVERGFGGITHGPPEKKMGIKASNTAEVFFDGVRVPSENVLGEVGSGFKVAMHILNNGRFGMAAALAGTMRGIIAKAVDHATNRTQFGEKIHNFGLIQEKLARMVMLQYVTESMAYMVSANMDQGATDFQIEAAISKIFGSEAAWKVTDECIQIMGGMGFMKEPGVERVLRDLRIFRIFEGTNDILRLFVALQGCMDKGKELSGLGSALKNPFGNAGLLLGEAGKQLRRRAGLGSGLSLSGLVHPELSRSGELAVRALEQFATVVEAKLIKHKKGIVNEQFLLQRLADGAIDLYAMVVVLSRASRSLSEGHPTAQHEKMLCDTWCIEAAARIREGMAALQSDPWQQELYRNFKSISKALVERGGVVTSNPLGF", "experiment": "In vitro VLCAD enzymatic activity assay (palmitoyl-CoA, ferrocenium hexafluorophosphate)", "type": "biochemical", "conditions": "0.75 μM VLCAD pre-incubated overnight at 4° C. with 75 μM SAHB; substrate palmitoyl-CoA", "experimental": "To assess whether the direct MCL-1/VLCAD binding interaction influences VLCAD enzymatic activity, an in vitro enzymatic activity assay was conducted. Recombinant VLCAD was incubated with its substrate (palmitoyl-CoA) and ferrocenium hexafluorophosphate, a strong electrophile. As VLCAD acts upon its substrate and oxidizes it, the ferrocenium hexafluorophosphate is reduced, causing a change in absorbance that is readily measured.\nVLCAD. Mature human VLCAD lacking its cleavable leader sequence (aa 40-655) (NP_000009.1) was subcloned into the pET19b vector (Novagen) using NdeI and XhoI restriction sites. Correct insertion was confirmed by DNA sequencing. […]\nVLCAD enzymatic activity was measured as previously described (see, e.g., Doulias et al., Sci Signal, 6(256):rs1 (2013); Lehman et al., Anal. Biochem., 186(2):280-284 (1990)). […] Where VLCAD activity was assessed in the presence of MCL-1 SAHBs, 0.75 μM VLCAD was incubated overnight at 4° C. with 75 μM SAHB and the protein-peptide mixture was used to initiate the ferrocenium reaction. Decrease in ferrocenium absorbance as a function of time at 300 nm was recorded and the initial velocity (V0) was calculated in units of U/mg using the molar absorptivity of ferrocenium (ε=4.3 mM^−1 cm^−1 at 300 nm) (see, e.g., Izai et al.). […]"}},
  "note": "Bridge positions count the residues as written; N and C are the ends. Square brackets hold non-standard residues; d marks the D form. Ends that are not written are not given here. S5 = C=CCCC[C@](C)(N)C(=O)O",
  "data": [
    {"substance": "MCL-1 SAHBD: hydrocarbon-stapled peptide mimicking the MCL-1 BH3 domain (Stabilized Alpha-Helix of BCL-2 Domain), SEQ ID NO:19 (RKALETLRRVGDGV[S5]RNH[S5]TAF; staple 15-19)", "values": [
      {"measurement": "biolayer interferometry association with MCL-1", "setting": "[1]", "value": "bind to MCL-1"},
      {"measurement": "effect on VLCAD enzymatic activity", "setting": "[2]", "value": "caused a decrease in enzymatic activity"}
    ]}
  ]
}
